From patent publication US20230340155A1 (published 2023)
Residue numbers refer to the chain shown, from its start. Names and notes keep the numbering of the source. Each block holds one binder with its values, some of them ahead of it.

What was measured:
cyno PD-1 (SPR analyte) = target: T1, cyno PD-1 (SPR analyte) (cynomolgus monkey); experiment: SPR, ProteOn XPR36, mAb captured by anti-human IgG Fc, cyno PD-1 as analyte, 25 C
T1 construct: Construct of the soluble analyte is not described; also called cynomolgus PD-1
Procedure: Affinity measurements were performed using a ProteOn XPR36 system (BioRad). […] Approximately 5000 RU (response units) of mAbs were immobilized. The kinetic experiments were performed at 25° C. in running buffer (DPBS+0.01% P20+100 µg/mL BSA). To perform kinetic experiments, 200 RU of mAbs were captured followed by injections of analytes (human and cyno PD-1) at concentrations ranging from 1.563 nM to 400 nM (in a 4-fold serial dilution). The association phase was monitored for 3 minutes at 50 µL/min, then followed by 10 or 15 minutes of buffer flow (dissociation phase). The chip surface was regenerated with two 18 second pulses of 100 mM H₃PO₄ (Sigma, Cat#7961) at 100 µL/min.
The collected data were processed using ProteOn Manager software. First, the data was corrected for background using inter-spots. Then, double reference subtraction of the data was performed by using the buffer injection for analyte injections. The kinetic analysis of the data was performed using a Langmuir 1:1 binding model. The result for each mAb was reported in the format of ka (On-rate), kd (Off-rate) and KD (equilibrium dissociation constant).
Affinity of the antibodies to human and cyno PD-1 was measured using SPR as described in Example 1.

[1] = target: T2, biotinylated Human PD-1/PDCD1 (Acro Biosystems, Cat# PD1-H82E4) (human, UniProt Q15116 25-167, biotinylated); experiment: Fab ELISA, Fab captured by anti-Fd(CH1) antibody, 5 nM biotinylated human PD-1, streptavidin-HRP chemiluminescence
T2 construct: Bought reagent; whole mature entry named
Procedure: For follow-up screening, plasmid DNA was prepared from overnight culture of the TG-1 Escherichia coli cells and the pIX gene was excised by NheI/SpeI digestion. After ligation, the DNA was transformed into TG-1 cells and grown on LB/Agar plates overnight. The next day, colonies were picked, grown overnight, and the cultures used for (i) colony sequencing of the V- regions, and (ii) induction of Fab production. For Fab production, the overnight culture was diluted 100 folds in new media and grown for 5-6 hours at 37° C. Fab production was induced by the addition of fresh media containing IPTG and the cultures were grown overnight at 30° C. The following day, the cultures were spun down and the supernatants, containing the soluble Fab proteins, were used for Fab ELISA. For the ELISA, the soluble Fab proteins were captured onto plates by a polyclonal anti-Fd(CH1) antibody. After washing and blocking, biotinylated Human PD-1/PDCD1 was added at 5 nM concentration. […] The biotinylated human PD-1 was detected by HRP-conjugated streptavidin with chemiluminescence measured in a plate reader.

T2 sequence (Q15116 25-167 limits assumed): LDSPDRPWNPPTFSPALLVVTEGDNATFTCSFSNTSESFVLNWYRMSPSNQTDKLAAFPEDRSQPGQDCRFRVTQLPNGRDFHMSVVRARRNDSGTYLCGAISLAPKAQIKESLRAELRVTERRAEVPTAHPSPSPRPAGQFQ

Kd (cyno PD-1 (SPR analyte)): 6.45 nM | koff (cyno PD-1 (SPR analyte)): 0.00129 s⁻¹ | kon (cyno PD-1 (SPR analyte)): 200000 M⁻¹ s⁻¹
B1: PD1B1085 (antibody, human IgG1, kappa, V domains shown)
VH: QVQLVQSGSELKKPGASVKVSCKASGYTFTDYSMHWVRQAPGQGLEWMGWINIETGYPTYAQGFTGRFVFSLDTSVSTAYLQISSLKAEDTAVYFCARDYYGTYFYAMDYWGQGTLVTVSS
VL: EIVLTQSPATLSLSPGERATLSCTASSSVSSSYLHWYQQKPGLAPRLLIYSTSNLASGIPDRFSGSGSGTDYTLTISRLEPEDFAVYYCHQYHRSPLTFGQGTKLEIKR
notes: IgG1; also called PD1H585/PD1L469; E57Y (VH) variant of PD1B878

Kd (cyno PD-1 (SPR analyte)): 4.23 nM | koff (cyno PD-1 (SPR analyte)): 0.000781 s⁻¹ | kon (cyno PD-1 (SPR analyte)): 185000 M⁻¹ s⁻¹
B4: PD1B1095 (antibody, human IgG1, kappa, V domains shown)
VH: B1 VH with Y57W
VL: B1 VL with S30P
notes: IgG1; also called PD1H587/PD1L652; E57W (VH), S30P (VL) variant of PD1B878

fold change in ELISA binding versus the parental Fab [1]: 10 fold
B5: PD1B878 Fab variant with light chain PD1L651 (V29F) (Fab, V domains shown)
VH: B1 VH with Y57E
VL: EIVLTQSPATLSLSPGERATLSCTASSSFSSSYLHWYQQKPGLAPRLLIYSTSNLASGIPDRFSGSGSGTDYTLTISRLEPEDFAVYYCHQYHRSPLTFGQGTKLEIK
notes: Soluble Fab of the non-combinatorial CDR scan

Kd (cyno PD-1 (SPR analyte)): 1.43 nM | koff (cyno PD-1 (SPR analyte)): 0.000185 s⁻¹ | kon (cyno PD-1 (SPR analyte)): 130000 M⁻¹ s⁻¹
B7: PD1B1090 (antibody, human IgG1, kappa, V domains shown)
VH: B1 VH
VL: B1 VL with V29F
notes: IgG1; also called PD1H585/PD1L651; E57Y (VH), V29F (VL) variant of PD1B878

fold change in ELISA binding versus the parental Fab [1]: 10 fold
B9: PD1B878 Fab variant with heavy chain PD1H587 (E57W) (Fab, V domains shown)
VH: B1 VH with Y57W
VL: B5 VL with F29V
notes: as for B5

Kd (cyno PD-1 (SPR analyte)): 11.6 nM | koff (cyno PD-1 (SPR analyte)): 0.00247 s⁻¹ | kon (cyno PD-1 (SPR analyte)): 212000 M⁻¹ s⁻¹
B11: PD1B1087 (antibody, human IgG1, kappa, V domains shown)
VH: B1 VH with Y57W
VL: B1 VL
notes: IgG1; also called PD1H587/PD1L469; E57W (VH) variant of PD1B878

Kd (cyno PD-1 (SPR analyte)): 2.18 nM | koff (cyno PD-1 (SPR analyte)): 0.000368 s⁻¹ | kon (cyno PD-1 (SPR analyte)): 169000 M⁻¹ s⁻¹
B12: PD1B1093 (antibody, human IgG1, kappa, V domains shown)
VH: B1 VH
VL: B1 VL with S30P
notes: IgG1; also called PD1H585/PD1L652; E57Y (VH), S30P (VL) variant of PD1B878

Kd (cyno PD-1 (SPR analyte)): 3.18 nM | koff (cyno PD-1 (SPR analyte)): 0.000411 s⁻¹ | kon (cyno PD-1 (SPR analyte)): 129000 M⁻¹ s⁻¹
B14: PD1B1092 (antibody, human IgG1, kappa, V domains shown)
VH: B1 VH with Y57W
VL: B1 VL with V29F
notes: IgG1; also called PD1H587/PD1L651; E57W (VH), V29F (VL) variant of PD1B878

Kd (cyno PD-1 (SPR analyte)): 90 nM | koff (cyno PD-1 (SPR analyte)): 0.00839 s⁻¹ | kon (cyno PD-1 (SPR analyte)): 93200 M⁻¹ s⁻¹
B15: PD1B1089 (antibody, human IgG1, kappa, V domains shown)
VH: B1 VH with Y57E
VL: B1 VL with S30P
notes: IgG1; also called PD1H405/PD1L652; S30P (VL) variant of PD1B878

Kd (cyno PD-1 (SPR analyte)): 72.4 nM | koff (cyno PD-1 (SPR analyte)): 0.00479 s⁻¹ | kon (cyno PD-1 (SPR analyte)): 66100 M⁻¹ s⁻¹
B16: PD1B1088 (antibody, human IgG1, kappa, V domains shown)
VH: B1 VH with Y57E
VL: B1 VL with V29F
notes: IgG1; also called PD1H405/PD1L651; V29F (VL) variant of PD1B878

Second part, the binder before the results:

B2: PD1B878 Fab variant with heavy chain PD1H585 (E57Y) (Fab, V domains shown)
VH: B1 VH
VL: B5 VL with F29V
notes: as for B5
fold change in ELISA binding versus the parental Fab [1]: 10 fold

B3: PD1B878 Fab variant with light chain PD1L652 (S30P) (Fab, V domains shown)
VH: B1 VH with Y57E
VL: B5 VL with F29V, S30P
notes: as for B5
fold change in ELISA binding versus the parental Fab [1]: 10 fold

B6: PD1B1086 (antibody, human IgG1, kappa, V domains shown)
VH: B1 VH with Y57H
VL: B1 VL
notes: IgG1; also called PD1H586/PD1L469; E57H (VH) variant of PD1B878
Kd (cyno PD-1 (SPR analyte)): 31.8 nM | koff (cyno PD-1 (SPR analyte)): 0.00544 s⁻¹ | kon (cyno PD-1 (SPR analyte)): 171000 M⁻¹ s⁻¹

B8: PD1B1091 (antibody, human IgG1, kappa, V domains shown)
VH: B1 VH with Y57H
VL: B1 VL with V29F
notes: IgG1; also called PD1H586/PD1L651; E57H (VH), V29F (VL) variant of PD1B878
Kd (cyno PD-1 (SPR analyte)): 9.32 nM | koff (cyno PD-1 (SPR analyte)): 0.000924 s⁻¹ | kon (cyno PD-1 (SPR analyte)): 99100 M⁻¹ s⁻¹

B10: PD1B1094 (antibody, human IgG1, kappa, V domains shown)
VH: B1 VH with Y57H
VL: B1 VL with S30P
notes: IgG1; also called PD1H586/PD1L652; E57H (VH), S30P (VL) variant of PD1B878
Kd (cyno PD-1 (SPR analyte)): 12 nM | koff (cyno PD-1 (SPR analyte)): 0.00162 s⁻¹ | kon (cyno PD-1 (SPR analyte)): 135000 M⁻¹ s⁻¹

B13: PD1B878 Fab variant with heavy chain PD1H586 (E57H) (Fab, V domains shown)
VH: B1 VH with Y57H
VL: B5 VL with F29V
notes: as for B5
fold change in ELISA binding versus the parental Fab [1]: 10 fold
